This assay concerns the target T1, CLEC12A (Homo sapiens, UniProt Q5QGZ9, K244Q).
T1 sequence (Q5QGZ9 65-265 K244Q): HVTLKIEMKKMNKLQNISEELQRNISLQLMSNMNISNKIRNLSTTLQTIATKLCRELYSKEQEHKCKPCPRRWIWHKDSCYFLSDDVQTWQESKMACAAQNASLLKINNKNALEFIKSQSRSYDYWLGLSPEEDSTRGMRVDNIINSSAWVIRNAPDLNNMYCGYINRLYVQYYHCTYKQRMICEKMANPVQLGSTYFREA
Put plainly: ELISA of fusion proteins, FMC63 coat, biotinylated CLEC12A detection. The format is binding.

B1: #330: fusion protein comprised of a CD19 variant and an anti-CLL-1 VHH (2H3); SEQ ID NO:305 (protein)
chain: MEFGLSWVFLVALFRGVQCQVQLQESGGGLVQAGGSLRLSCVASGSIRSINVMGWYRQAPGKQRELVAACASDGNTYYADSVKGRFTISRDNAEKTVYLQMNNLKPDDTAVYYCDANSRGNYYSGQGTQVTVSSTSGPGGQGAGGGGSGGGGSGGGGSGGGGSPEEPLVVKVEEGDTAALWCLKGTSDGPTQQLTWSRESPLKPFLKYSLGVPGLGVHVRPDAISVVIRNVSQQMGGFYLCQPGPPSEKAWQPGWTVNVEGSGELFRWNVSDLGGLGCGLKNRSSEGPSSPSGKLMSPKLYVWAKDRPEIWEGEPPCLPPRDSLNQSLSRDLTVAPGSTLWLSCGVPPDSVSRGPLSWTHVHPKGPKSLLSLELKDDRPARDMWVMGTSLMLPRATAQDAGKWYCHRGNLTMSFHLEITARPSRHHHHHH
In general, EC50 refers to the concentration giving half of the maximal effect. B1: the “CLEC12A binding EC50” value was determined as 1.4 ng/mL. For the same molecule, the EC50 (read-out: CLEC12A binding EC50) is 0.0299 nM.

The values are drawn from US20220387487A1, “COMPOSITIONS AND METHODS FOR TREATMENT OF CANCER” (Aleta Biotherapeutics Inc., priority 2019, published 2022).
